From article PMC5499601 (Nucleic Acids Research, 2017)

How the values were obtained:
Assay in all cases: EMSA
[1] = target: T1, BsSpo0J R105E (UniProt P26497 1-282, R105E)
T1 sequence: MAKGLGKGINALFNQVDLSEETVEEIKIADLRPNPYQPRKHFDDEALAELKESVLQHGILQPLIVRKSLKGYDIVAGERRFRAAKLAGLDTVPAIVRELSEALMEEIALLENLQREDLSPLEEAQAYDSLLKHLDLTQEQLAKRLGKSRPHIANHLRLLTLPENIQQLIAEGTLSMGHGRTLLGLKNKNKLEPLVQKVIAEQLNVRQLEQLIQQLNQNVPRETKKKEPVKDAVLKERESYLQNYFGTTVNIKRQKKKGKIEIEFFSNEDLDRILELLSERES

[2] = target: T2, BsSpo0J E52R (UniProt P26497 1-282, E52R)
T2 sequence: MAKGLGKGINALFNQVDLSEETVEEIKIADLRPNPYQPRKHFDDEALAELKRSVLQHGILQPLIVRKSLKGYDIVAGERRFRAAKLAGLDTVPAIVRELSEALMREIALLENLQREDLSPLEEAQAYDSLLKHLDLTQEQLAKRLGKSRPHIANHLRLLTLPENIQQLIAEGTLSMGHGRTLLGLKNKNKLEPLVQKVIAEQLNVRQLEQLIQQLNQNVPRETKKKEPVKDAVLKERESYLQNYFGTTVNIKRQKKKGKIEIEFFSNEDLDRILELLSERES

[3] = target: T3, BsSpo0J L60E (UniProt P26497 1-282, L60E)
T3 sequence: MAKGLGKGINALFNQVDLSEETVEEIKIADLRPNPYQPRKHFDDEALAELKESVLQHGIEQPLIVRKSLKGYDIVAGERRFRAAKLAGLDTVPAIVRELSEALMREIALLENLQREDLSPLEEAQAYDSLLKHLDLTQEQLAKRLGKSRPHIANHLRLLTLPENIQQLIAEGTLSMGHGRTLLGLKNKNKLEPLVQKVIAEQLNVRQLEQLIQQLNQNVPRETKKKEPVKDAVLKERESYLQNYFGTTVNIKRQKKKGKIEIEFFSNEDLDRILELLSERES

[4] = target: T4, BsSpo0J M104A (UniProt P26497 1-282, M104A)
T4 sequence: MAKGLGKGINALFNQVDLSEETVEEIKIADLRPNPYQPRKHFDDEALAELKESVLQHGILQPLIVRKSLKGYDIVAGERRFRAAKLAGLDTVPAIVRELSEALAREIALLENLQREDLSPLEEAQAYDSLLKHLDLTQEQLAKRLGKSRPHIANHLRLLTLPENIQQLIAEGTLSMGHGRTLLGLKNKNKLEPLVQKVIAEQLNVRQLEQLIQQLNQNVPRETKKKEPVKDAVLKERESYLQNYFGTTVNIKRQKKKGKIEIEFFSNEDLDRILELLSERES

[5] = target: T5, BsSpo0J R82A (UniProt P26497 1-282, R82A)
T5 sequence: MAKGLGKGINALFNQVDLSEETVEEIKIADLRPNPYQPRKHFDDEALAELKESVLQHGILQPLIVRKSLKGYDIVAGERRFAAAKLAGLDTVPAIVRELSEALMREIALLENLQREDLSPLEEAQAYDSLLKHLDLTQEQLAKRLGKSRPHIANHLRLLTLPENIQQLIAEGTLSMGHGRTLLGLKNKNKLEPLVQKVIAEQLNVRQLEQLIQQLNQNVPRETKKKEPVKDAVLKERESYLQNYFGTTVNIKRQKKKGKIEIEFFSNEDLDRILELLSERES

[6] = target: T6, BsSpo0J Q140A (UniProt P26497 1-282, Q140A)
T6 sequence: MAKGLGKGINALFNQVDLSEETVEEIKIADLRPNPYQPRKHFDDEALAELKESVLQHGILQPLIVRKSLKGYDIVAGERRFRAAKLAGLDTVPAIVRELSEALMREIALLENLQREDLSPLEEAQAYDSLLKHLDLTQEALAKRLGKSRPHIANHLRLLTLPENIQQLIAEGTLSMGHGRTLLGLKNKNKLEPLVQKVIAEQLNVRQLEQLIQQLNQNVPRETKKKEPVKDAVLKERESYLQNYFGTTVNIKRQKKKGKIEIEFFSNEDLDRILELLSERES

[7] = target: T7, BsSpo0J V75A (UniProt P26497 1-282, V75A)
T7 sequence: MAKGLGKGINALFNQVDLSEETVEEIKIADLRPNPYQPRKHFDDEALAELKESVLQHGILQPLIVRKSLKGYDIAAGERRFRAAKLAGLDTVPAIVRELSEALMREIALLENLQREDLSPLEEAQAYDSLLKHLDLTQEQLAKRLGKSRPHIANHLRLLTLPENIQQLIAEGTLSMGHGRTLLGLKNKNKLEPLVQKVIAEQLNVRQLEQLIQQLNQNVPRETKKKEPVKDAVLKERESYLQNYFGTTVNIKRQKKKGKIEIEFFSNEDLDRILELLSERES

[8] = target: T8, BsSpo0J R79A (UniProt P26497 1-282, R79A)
T8 sequence: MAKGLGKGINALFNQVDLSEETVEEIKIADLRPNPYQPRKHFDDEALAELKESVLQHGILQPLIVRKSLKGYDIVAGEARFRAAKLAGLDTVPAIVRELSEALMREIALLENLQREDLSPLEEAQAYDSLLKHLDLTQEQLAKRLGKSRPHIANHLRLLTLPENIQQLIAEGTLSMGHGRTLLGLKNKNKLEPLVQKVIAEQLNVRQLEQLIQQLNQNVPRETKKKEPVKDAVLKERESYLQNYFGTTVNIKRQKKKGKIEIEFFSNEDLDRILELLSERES

[9] = target: T9, BsSpo0J R105A (UniProt P26497 1-282, R105A)
T9 sequence: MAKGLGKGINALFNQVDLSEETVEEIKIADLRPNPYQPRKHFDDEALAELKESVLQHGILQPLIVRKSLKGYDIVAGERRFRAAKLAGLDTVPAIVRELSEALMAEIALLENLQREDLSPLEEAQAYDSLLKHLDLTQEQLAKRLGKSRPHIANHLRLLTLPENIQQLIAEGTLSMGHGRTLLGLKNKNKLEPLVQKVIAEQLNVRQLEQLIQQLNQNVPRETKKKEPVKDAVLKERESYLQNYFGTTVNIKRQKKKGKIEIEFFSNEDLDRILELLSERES

Measured: binding result

B1: 24-bp parS (dsDNA)
DNA 1: AGAATGTTCCACGTGAAACAAAGA
DNA 2: TCTTTGTTTCACGTGGAACATTCT
binds: all assays above
